Data published in article PMC9199185, “The Importance of the C-Terminal Cys Pair of Phosphoribulokinase in Phototrophs in Thioredoxin-Dependent Regulation” (Plant and Cell Physiology, 2022).

How the values were obtained:
[1] = substrate: Nc1ncnc2c1ncn2[C@@H]1O[C@H](COP(=O)(O)OP(=O)(O)OP(=O)(O)O)[C@@H](O)[C@H]1O; test: purified protein; assay type: biochemical, Arabidopsis thaliana; conditions: reduced form (pretreated with 50 mM DTTred), ATP varied 0-2 mM, 2 mM ribose 5-phosphate plus ribose 5-phosphate isomerase, 10 mM MgCl2, 100 mM KCl, pH 7.5, 25 °C
[2] = substrate: Nc1ncnc2c1ncn2[C@@H]1O[C@H](COP(=O)(O)OP(=O)(O)OP(=O)(O)O)[C@@H](O)[C@H]1O; test: purified protein; assay type: biochemical, Nostoc sp. PCC 7120 = FACHB-418; conditions: reduced form (pretreated with 50 mM DTTred), ATP varied 0-2 mM, 2 mM ribose 5-phosphate plus ribose 5-phosphate isomerase, 10 mM MgCl2, 100 mM KCl, pH 7.5, 30 °C

| Protein | Km [1] [µM] | Vmax [1] [µmol/min/mg] | Km [2] [µM] | Vmax [2] [µmol/min/mg] |
| --- | --- | --- | --- | --- |
| AtPRK (Arabidopsis thaliana) (protein, recombinant in E. coli BL21(DE3), pET-21a; no tag stated; dimer, calculated 79,000) AQETIVIGLAADSGCGKSTFMRRLTSVFGGAAKPPKGGNPDSNTLISDTTTVICLDDYHSLDRYGRKEQKVTALDPRANDFDLMYEQVKALKNGIAVEKPIYNHVTGLLDPPELIQPPKILVIEGLHPMFDERVRDLLDFSIYLDISNEVKFAWKIQRDMAERGHSLESIKASIEARKPDFDAFIDPQKQYADAVIEVLPTTLIPDDNEGKVLRVRLIMKEGVKYFSPVYLFDEGSTISWIPCGRKLTCSYPGIKFNYEPDSYFDHEVSVLEMDGQFDRLDELIYVESHLSNLSTKFYGEVTQQMLKHADFPGSNNGTGLFQTIVGLKIRDLYEQLIANKATARAEAKA | 46.5 ± 6.5 | 289 | – | – |
| A.7120_PRK (Nostoc sp. PCC 7120 = FACHB-418) (protein, recombinant in E. coli BL21(DE3), pET-21a; no tag stated; Cys pairs Cys19/Cys41 and Cys230/Cys236) MTTKPERVVLIGVAGDSGCGKSTFLRRLIDLFGEEFMTVICLDDYHSLDRKQRKETGITALDPRANNFDLMYEQIKALKEGQTINKPIYNHETGLIDPPEIVKPNHIVVVEGLHPLYDERVRSLLDFSVYFDISDEVKIAWKIQRDMAERGHRYEDVLAAINSRKPDFQKYIEPQREFADVVLQVLPTNLIKDDTERKVLRVRMLQREGKEGFEPAYLFDEGSTINWTPCGRKLTCSYPGMQLYYGSDVYYGRYVSVLEVDGQFDNLEEVIYIETHLSNTSTKYQGELTQLLLQHREYPGSNNGTGFFQVLTGLKMRAAYERLTTKEAKLAVQV | – | – | 109 ± 4.5 | 214 |
